# Target: human 4-1BB on Jurkat cells (Promega) (human) (UniProt Q07011)
# Experiment: cell-based or functional assay
# Sequence of human 4-1BB on Jurkat cells (Promega) (human) (Q07011 24-255): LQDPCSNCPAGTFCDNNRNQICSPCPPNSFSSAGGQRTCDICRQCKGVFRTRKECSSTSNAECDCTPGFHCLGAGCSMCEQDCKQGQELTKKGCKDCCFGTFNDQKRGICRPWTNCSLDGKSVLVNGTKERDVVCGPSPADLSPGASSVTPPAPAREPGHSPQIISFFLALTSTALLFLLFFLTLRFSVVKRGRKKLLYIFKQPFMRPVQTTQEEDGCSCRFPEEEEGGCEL
substance,measurement,value
Urelumab (BMS-663513) (antibody),"EC50 (nM), 4-1BB NFκB luciferase reporter bioassay, CHO-hROR1 100%",0.235 nM

# Reference: patent US20260015418A1
